According to patent US20090298765A1 (Takeda / Millennium, published 2009):
Starred links: 1 amine or outer side, 2 acyl side, 3 side chain; linkers in the order of their positions; H or OH if unused. Non-standard residues stand in square brackets, D forms with d. No end group written: not given here. Ala(2-Qui) = 2-quinolylalanine, O=C([C@H](Cc1ccc2ccccc2n1)N[*:1])[*:2]; Phe(3,4-Cl2) = N[C@@H](Cc1ccc(Cl)c(Cl)c1)C(=O)O; 1Nal = N[C@@H](Cc1cccc2ccccc12)C(=O)O; 2Nal = N[C@@H](Cc1ccc2ccccc2c1)C(=O)O; Arg(Me) = CNC(=N)NCCC[C@H](N)C(=O)O; Bta = N[C@@H](Cc1csc2ccccc12)C(=O)O; Cha = N[C@@H](CC1CCCCC1)C(=O)O; azaGly = NNC(=O)O

B1: [D-Tyr1,Nal(2)3,AzaGly7,Arg(Me)9]MS10 (peptide)
peptide: [dY]N[2Nal]NSF[azaGly]L[Arg(Me)]F-NH2
modifications: N-terminus assumed
SMILES: CNC(=N)NCCC[C@H](NC(=O)[C@H](CC(C)C)NC(=O)NNC(=O)[C@H](Cc1ccccc1)NC(=O)[C@H](CO)NC(=O)[C@H](CC(N)=O)NC(=O)[C@H](Cc1ccc2ccccc2c1)NC(=O)[C@H](CC(N)=O)NC(=O)[C@H](N)Cc1ccc(O)cc1)C(=O)N[C@@H](Cc1ccccc1)C(N)=O
notes: also called Compound No. 246
B2: [D-Tyr1,Cha3,AzaGly7,Arg(Me)9]MS10 (peptide)
peptide: [dY]N[Cha]NSF[azaGly]L[Arg(Me)]F-NH2
modifications: N-terminus assumed
SMILES: CNC(=N)NCCC[C@H](NC(=O)[C@H](CC(C)C)NC(=O)NNC(=O)[C@H](Cc1ccccc1)NC(=O)[C@H](CO)NC(=O)[C@H](CC(N)=O)NC(=O)[C@H](CC1CCCCC1)NC(=O)[C@H](CC(N)=O)NC(=O)[C@H](N)Cc1ccc(O)cc1)C(=O)N[C@@H](Cc1ccccc1)C(N)=O
notes: also called Compound No. 190
B3: [D-Tyr1,Thr2,Arg(Me)9]MS10 (peptide)
peptide: [dY]TWNSFGL[Arg(Me)]F-NH2
modifications: N-terminus assumed
SMILES: CNC(=N)NCCC[C@H](NC(=O)[C@H](CC(C)C)NC(=O)CNC(=O)[C@H](Cc1ccccc1)NC(=O)[C@H](CO)NC(=O)[C@H](CC(N)=O)NC(=O)[C@H](Cc1c[nH]c2ccccc12)NC(=O)[C@@H](NC(=O)[C@H](N)Cc1ccc(O)cc1)[C@@H](C)O)C(=O)N[C@@H](Cc1ccccc1)C(N)=O
notes: also called Compound No. 215
B4: [D-Tyr1,Thr3,Arg(Me)9]MS10 (peptide)
peptide: [dY]NTNSFGL[Arg(Me)]F-NH2
modifications: N-terminus assumed
SMILES: CNC(=N)NCCC[C@H](NC(=O)[C@H](CC(C)C)NC(=O)CNC(=O)[C@H](Cc1ccccc1)NC(=O)[C@H](CO)NC(=O)[C@H](CC(N)=O)NC(=O)[C@@H](NC(=O)[C@H](CC(N)=O)NC(=O)[C@H](N)Cc1ccc(O)cc1)[C@@H](C)O)C(=O)N[C@@H](Cc1ccccc1)C(N)=O
notes: also called Compound No. 205
B5: [D-Tyr1,Val3,Arg(Me)9]MS10 (peptide)
peptide: [dY]NVNSFGL[Arg(Me)]F-NH2
modifications: N-terminus assumed
SMILES: CNC(=N)NCCC[C@H](NC(=O)[C@H](CC(C)C)NC(=O)CNC(=O)[C@H](Cc1ccccc1)NC(=O)[C@H](CO)NC(=O)[C@H](CC(N)=O)NC(=O)[C@@H](NC(=O)[C@H](CC(N)=O)NC(=O)[C@H](N)Cc1ccc(O)cc1)C(C)C)C(=O)N[C@@H](Cc1ccccc1)C(N)=O
notes: also called Compound No. 229
B6: [D-Tyr1,Val3,AzaGly7,Arg(Me)9]MS10 (peptide)
peptide: [dY]NVNSF[azaGly]L[Arg(Me)]F-NH2
modifications: N-terminus assumed
SMILES: CNC(=N)NCCC[C@H](NC(=O)[C@H](CC(C)C)NC(=O)NNC(=O)[C@H](Cc1ccccc1)NC(=O)[C@H](CO)NC(=O)[C@H](CC(N)=O)NC(=O)[C@@H](NC(=O)[C@H](CC(N)=O)NC(=O)[C@H](N)Cc1ccc(O)cc1)C(C)C)C(=O)N[C@@H](Cc1ccccc1)C(N)=O
notes: also called Compound No. 234
B7: [Ala(2-Qui)10]MS10 (peptide)
peptide: YNWNSFGLR[Ala(2-Qui)]-NH2
modifications: N-terminus assumed
SMILES: CC(C)C[C@H](NC(=O)CNC(=O)[C@H](Cc1ccccc1)NC(=O)[C@H](CO)NC(=O)[C@H](CC(N)=O)NC(=O)[C@H](Cc1c[nH]c2ccccc12)NC(=O)[C@H](CC(N)=O)NC(=O)[C@@H](N)Cc1ccc(O)cc1)C(=O)N[C@@H](CCCNC(=N)N)C(=O)N[C@@H](Cc1ccc2ccccc2n1)C(N)=O
notes: also called Compound No. 201
B8: des(1)-[D-Tyr2,Arg(Me)9]MS10 (peptide)
peptide: [dY]WNSFGL[Arg(Me)]F-NH2
modifications: N-terminus assumed
SMILES: CNC(=N)NCCC[C@H](NC(=O)[C@H](CC(C)C)NC(=O)CNC(=O)[C@H](Cc1ccccc1)NC(=O)[C@H](CO)NC(=O)[C@H](CC(N)=O)NC(=O)[C@H](Cc1c[nH]c2ccccc12)NC(=O)[C@H](N)Cc1ccc(O)cc1)C(=O)N[C@@H](Cc1ccccc1)C(N)=O
notes: also called Compound No. 217
B9: [Ala(3-Bzt)10]MS10 (peptide)
peptide: YNWNSFGLR[Bta]-NH2
modifications: N-terminus assumed
SMILES: CC(C)C[C@H](NC(=O)CNC(=O)[C@H](Cc1ccccc1)NC(=O)[C@H](CO)NC(=O)[C@H](CC(N)=O)NC(=O)[C@H](Cc1c[nH]c2ccccc12)NC(=O)[C@H](CC(N)=O)NC(=O)[C@@H](N)Cc1ccc(O)cc1)C(=O)N[C@@H](CCCNC(=N)N)C(=O)N[C@@H](Cc1csc2ccccc12)C(N)=O
notes: also called Compound No. 189
B10: [D-Tyr1,Nal(1)3,AzaGly7,Arg(Me)9]MS10 (peptide)
peptide: [dY]N[1Nal]NSF[azaGly]L[Arg(Me)]F-NH2
modifications: N-terminus assumed
SMILES: CNC(=N)NCCC[C@H](NC(=O)[C@H](CC(C)C)NC(=O)NNC(=O)[C@H](Cc1ccccc1)NC(=O)[C@H](CO)NC(=O)[C@H](CC(N)=O)NC(=O)[C@H](Cc1cccc2ccccc12)NC(=O)[C@H](CC(N)=O)NC(=O)[C@H](N)Cc1ccc(O)cc1)C(=O)N[C@@H](Cc1ccccc1)C(N)=O
notes: also called Compound No. 245
B11: [D-Tyr1,Cha3,6,Arg(Me)9,Trp10]MS10 (peptide)
peptide: [dY]N[Cha]NS[Cha]GL[Arg(Me)]W-NH2
modifications: N-terminus assumed
SMILES: CNC(=N)NCCC[C@H](NC(=O)[C@H](CC(C)C)NC(=O)CNC(=O)[C@H](CC1CCCCC1)NC(=O)[C@H](CO)NC(=O)[C@H](CC(N)=O)NC(=O)[C@H](CC1CCCCC1)NC(=O)[C@H](CC(N)=O)NC(=O)[C@H](N)Cc1ccc(O)cc1)C(=O)N[C@@H](Cc1c[nH]c2ccccc12)C(N)=O
notes: also called Compound No. 182

Key:
[1] = target: T1, human OT7T175 (metastin receptor) (human, UniProt Q969F8 1-398); assay: competition with Cy-5 metastin (40-54) on hOT7T175-CHO cells, FMAT
T1 construct: expressed on CHO cells; also called hOT7T175; hOT7T175-expressed CHO cells
T1 sequence (Q969F8 whole entry L364H): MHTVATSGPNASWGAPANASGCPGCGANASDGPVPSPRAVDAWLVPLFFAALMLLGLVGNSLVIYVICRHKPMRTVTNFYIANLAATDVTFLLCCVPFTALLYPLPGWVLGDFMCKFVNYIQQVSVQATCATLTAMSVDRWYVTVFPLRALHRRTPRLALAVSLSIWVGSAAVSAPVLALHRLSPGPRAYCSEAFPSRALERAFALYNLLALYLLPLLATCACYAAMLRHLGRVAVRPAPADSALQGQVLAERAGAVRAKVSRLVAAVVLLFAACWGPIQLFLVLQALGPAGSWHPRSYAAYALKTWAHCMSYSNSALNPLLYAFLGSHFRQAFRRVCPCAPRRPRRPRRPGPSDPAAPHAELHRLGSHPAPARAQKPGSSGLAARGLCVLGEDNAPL

[2] = target: T1, human OT7T175 (metastin receptor); assay: cell-based or functional assay
[3] = target: T1, human OT7T175 (metastin receptor); assay: cell-based or functional assay; remark: listed apart in the source

Binder	IC50 [1] [nM]	Ca ion level-increasing activity (FLIPR) [2]	Ca ion level-increasing activity (FLIPR, 40 s) [3] [EC50/MS10 EC50]
[dY][2Nal]NSF[azaGly]L[Arg(Me)]F-NH2 (also called Compound No. 255) [des(1)-[D-Tyr2,Nal(2)3,AzaGly7,Arg(Me)9]MS10]	33	1 x Metastin (1-54)	–
B1	7.1	2 x Metastin (1-54)	–
YNWNSXGLRF (D-Tyr1; Cha6; Arg(Me)9; C-terminal amide, also called Compound No. 203) [[D-Tyr1,Cha6,Arg(Me)9]MS10]	37	10 x Metastin (1-54)	–
[dY][dW]NSFGL[Arg(Me)]F-NH2 (also called Compound No. 224) [des(1)-[D-Tyr2,D-Trp3,Arg(Me)9]MS10]	140	2 x Metastin (1-54)	–
B2	12	10 x Metastin (1-54)	–
B3	250	10 x Metastin (1-54)	–
B4	260	10 x Metastin (1-54)	–
B5	130	1 x Metastin (1-54)	–
B6	47	1 x Metastin (1-54)	–
[dY]NWNSFGV[Arg(Me)]F-NH2 (also called Compound No. 213) [[D-Tyr1,Val8,Arg(Me)9]MS10]	190	2 x Metastin (1-54)	–
YNWNSFGLR[Phe(3,4-Cl2)]-NH2 (also called Compound No. 199) [[Phe(3,4Cl2)10]MS10]	470	3 x Metastin (1-54)	–
B7	820	1 x Metastin (1-54)	–
B8	250	20 x Metastin (1-54)	3.1
[dY]TNSF[azaGly]L[Arg(Me)]F-NH2 (also called Compound No. 241) [des(1)-[D-Tyr2,Thr3,AzaGly7,Arg(Me)9]MS10]	56	1 x Metastin (1-54)	5.3
B9	230	10 x Metastin (1-54)	–
B10	98	1 x Metastin (1-54)	–
B11	98	5 x Metastin (1-54)	–
